These results are taken from patent US7132278.

The data set has as its target T1, AMARA peptide, synthetic substrate NH2-AMARAASAAALARRR-CO2H.
T1 chain: AMARAASAAALARRR

B1: human PASK enzyme, wildtype, pre-phosphorylated in the presence of ATP (protein)
chain: MEDGGLTAFEEDQRCLSQSLPLPVSAEGPAAQTTAEPSRSFSSAHRHLSRRNGLSRLCQSRTALSEDRWSSYCLSSLAAQNICTSKLHCPAAPEHTDPSEPRGSVSCCSLLRGLSSGWSSPLLPAPVCNPNKAIFTVDAKTTEILVANDKACGLLGYSSQDLIGQKLTQFFLRSDSDVVEALSEEHMEADGHAAVVFGTVVDIISRSGEKIPVSVWMKRMRQERRLCCVVVLEPVERVSTWVAFQSDGTVTSCDSLFAHLHGYVSGEDVAGQHITDLIPSVQLPPSGQHIPKNLKIQRSVGRARDGTTFPLSLKLKSQPSSEEATTGEAAPVSGYRASVWVFCTISGLITLLPDGTIHGINHSFALTLFGYGKTELLGKNITFLIPGFYSYMDLAYNSSLQLPDLASCLDVGNESGCGERTLDPWQGQDPAEGGQDPRINVVLAGGHVVPRDEIRKLMESQDIFTGTQTELIAGGQLLSCLSPQPAPGVDNVPEGSLPVHGEQALPKDQQITALGREEPVAIESPGQDLLGESRSEPVDVKPFASCEDSEAPVPAEDGGSDAGMCGLCQKAQLERMGVSGPSGSDLWAGAAVAKPQAKGQLAGGSLLMHCPCYGSEWGLWWRSQDLAPSPSGMAGLSFGTPTLDEPWLGVENDREELQTCLIKEQLSQLSLAGALDVPHAELVPTECQAVTAPVSSCDLGGRDLCGGCTGSSSACYALATDLPGGLEAVEAQEVDVNSFSWNLKELFFSDQTDQTSSNCSCATSELRETPSSLAVGSDPDVGSLQEQGSCVLDDRELLLLTGTCVDLGQGRRFRESCVGHDPTEPLEVCLVSSEHYAASDRESPGHVPSTLDAGPEDTCPSAEEPRLNVQVTSTPVIVMRGAAGLQREIQEGAYSGSCHHRDGLRLSIQFEVRRVELQGPTPLFCCWLVKDLLHSQRDSAARTRLFLASLPGSTHSTAAELTGPSLVEVLRARPWFEEPPKAVELEGLAACEGEYSQKYSTMSPLGSGAFGFVWTAVDKEKNKEVVVKFIKKEKVLEDCWIEDPKLGKVTLEIAILSRVEHANIIKVLDIFENQGFFQLVMEKHGSGLDLFAFIDRHPRLDEPLASYIFRQLVSAVGYLRLKDIIHRDIKDENIVIAEDFTIKLIDFGSAAYLERGKLFYTFCGTIEYCAPEVLMGNPYRGPELEMWSLGVTLYTLVFEENPFCELEETVEAAIHPPYLVSKELMSLVSGLLQPVPERRTTLEKLVTDPWVTQPVNLADYTWEEVCRVNKPESGVLSAASLEMGNRSLSDVAQAQELCGGPVPGEAPNGQGCLHPGDPRLLTS
As for B1, the Km (mM), pre-phosphorylated was found to be 0.2 mM and the “fold lower Km for substrate than the unmodified enzyme” value is 6.5-fold lower Km for substrate than the unmodified enzyme.

B2: human PASK S1149A, pre-phosphorylated (protein)
chain: MEDGGLTAFEEDQRCLSQSLPLPVSAEGPAAQTTAEPSRSFSSAHRHLSRRNGLSRLCQSRTALSEDRWSSYCLSSLAAQNICTSKLHCPAAPEHTDPSEPRGSVSCCSLLRGLSSGWSSPLLPAPVCNPNKAIFTVDAKTTEILVANDKACGLLGYSSQDLIGQKLTQFFLRSDSDVVEALSEEHMEADGHAAVVFGTVVDIISRSGEKIPVSVWMKRMRQERRLCCVVVLEPVERVSTWVAFQSDGTVTSCDSLFAHLHGYVSGEDVAGQHITDLIPSVQLPPSGQHIPKNLKIQRSVGRARDGTTFPLSLKLKSQPSSEEATTGEAAPVSGYRASVWVFCTISGLITLLPDGTIHGINHSFALTLFGYGKTELLGKNITFLIPGFYSYMDLAYNSSLQLPDLASCLDVGNESGCGERTLDPWQGQDPAEGGQDPRINVVLAGGHVVPRDEIRKLMESQDIFTGTQTELIAGGQLLSCLSPQPAPGVDNVPEGSLPVHGEQALPKDQQITALGREEPVAIESPGQDLLGESRSEPVDVKPFASCEDSEAPVPAEDGGSDAGMCGLCQKAQLERMGVSGPSGSDLWAGAAVAKPQAKGQLAGGSLLMHCPCYGSEWGLWWRSQDLAPSPSGMAGLSFGTPTLDEPWLGVENDREELQTCLIKEQLSQLSLAGALDVPHAELVPTECQAVTAPVSSCDLGGRDLCGGCTGSSSACYALATDLPGGLEAVEAQEVDVNSFSWNLKELFFSDQTDQTSSNCSCATSELRETPSSLAVGSDPDVGSLQEQGSCVLDDRELLLLTGTCVDLGQGRRFRESCVGHDPTEPLEVCLVSSEHYAASDRESPGHVPSTLDAGPEDTCPSAEEPRLNVQVTSTPVIVMRGAAGLQREIQEGAYSGSCHHRDGLRLSIQFEVRRVELQGPTPLFCCWLVKDLLHSQRDSAARTRLFLASLPGSTHSTAAELTGPSLVEVLRARPWFEEPPKAVELEGLAACEGEYSQKYSTMSPLGSGAFGFVWTAVDKEKNKEVVVKFIKKEKVLEDCWIEDPKLGKVTLEIAILSRVEHANIIKVLDIFENQGFFQLVMEKHGSGLDLFAFIDRHPRLDEPLASYIFRQLVSAVGYLRLKDIIHRDIKDENIVIAEDFTIKLIDFGAAAYLERGKLFYTFCGTIEYCAPEVLMGNPYRGPELEMWSLGVTLYTLVFEENPFCELEETVEAAIHPPYLVSKELMSLVSGLLQPVPERRTTLEKLVTDPWVTQPVNLADYTWEEVCRVNKPESGVLSAASLEMGNRSLSDVAQAQELCGGPVPGEAPNGQGCLHPGDPRLLTS
On to B2, for which the Km (mM), pre-phosphorylated amounted to 0.6 mM.

B3: human PASK S1273,77,80A, pre-phosphorylated (protein)
chain: MEDGGLTAFEEDQRCLSQSLPLPVSAEGPAAQTTAEPSRSFSSAHRHLSRRNGLSRLCQSRTALSEDRWSSYCLSSLAAQNICTSKLHCPAAPEHTDPSEPRGSVSCCSLLRGLSSGWSSPLLPAPVCNPNKAIFTVDAKTTEILVANDKACGLLGYSSQDLIGQKLTQFFLRSDSDVVEALSEEHMEADGHAAVVFGTVVDIISRSGEKIPVSVWMKRMRQERRLCCVVVLEPVERVSTWVAFQSDGTVTSCDSLFAHLHGYVSGEDVAGQHITDLIPSVQLPPSGQHIPKNLKIQRSVGRARDGTTFPLSLKLKSQPSSEEATTGEAAPVSGYRASVWVFCTISGLITLLPDGTIHGINHSFALTLFGYGKTELLGKNITFLIPGFYSYMDLAYNSSLQLPDLASCLDVGNESGCGERTLDPWQGQDPAEGGQDPRINVVLAGGHVVPRDEIRKLMESQDIFTGTQTELIAGGQLLSCLSPQPAPGVDNVPEGSLPVHGEQALPKDQQITALGREEPVAIESPGQDLLGESRSEPVDVKPFASCEDSEAPVPAEDGGSDAGMCGLCQKAQLERMGVSGPSGSDLWAGAAVAKPQAKGQLAGGSLLMHCPCYGSEWGLWWRSQDLAPSPSGMAGLSFGTPTLDEPWLGVENDREELQTCLIKEQLSQLSLAGALDVPHAELVPTECQAVTAPVSSCDLGGRDLCGGCTGSSSACYALATDLPGGLEAVEAQEVDVNSFSWNLKELFFSDQTDQTSSNCSCATSELRETPSSLAVGSDPDVGSLQEQGSCVLDDRELLLLTGTCVDLGQGRRFRESCVGHDPTEPLEVCLVSSEHYAASDRESPGHVPSTLDAGPEDTCPSAEEPRLNVQVTSTPVIVMRGAAGLQREIQEGAYSGSCHHRDGLRLSIQFEVRRVELQGPTPLFCCWLVKDLLHSQRDSAARTRLFLASLPGSTHSTAAELTGPSLVEVLRARPWFEEPPKAVELEGLAACEGEYSQKYSTMSPLGSGAFGFVWTAVDKEKNKEVVVKFIKKEKVLEDCWIEDPKLGKVTLEIAILSRVEHANIIKVLDIFENQGFFQLVMEKHGSGLDLFAFIDRHPRLDEPLASYIFRQLVSAVGYLRLKDIIHRDIKDENIVIAEDFTIKLIDFGSAAYLERGKLFYTFCGTIEYCAPEVLMGNPYRGPELEMWSLGVTLYTLVFEENPFCELEETVEAAIHPPYLVSKELMSLVSGLLQPVPERRTTLEKLVTDPWVTQPVNLADYTWEEVCRVNKPEAGVLAAAALEMGNRSLSDVAQAQELCGGPVPGEAPNGQGCLHPGDPRLLTS
On to B3, for which the Km (mM), pre-phosphorylated is 0.3 mM.

B4: human PASK enzyme, wildtype, untreated (unmodified, as purified from baculovirus-infected Sf-9 cells) (protein)
chain: MEDGGLTAFEEDQRCLSQSLPLPVSAEGPAAQTTAEPSRSFSSAHRHLSRRNGLSRLCQSRTALSEDRWSSYCLSSLAAQNICTSKLHCPAAPEHTDPSEPRGSVSCCSLLRGLSSGWSSPLLPAPVCNPNKAIFTVDAKTTEILVANDKACGLLGYSSQDLIGQKLTQFFLRSDSDVVEALSEEHMEADGHAAVVFGTVVDIISRSGEKIPVSVWMKRMRQERRLCCVVVLEPVERVSTWVAFQSDGTVTSCDSLFAHLHGYVSGEDVAGQHITDLIPSVQLPPSGQHIPKNLKIQRSVGRARDGTTFPLSLKLKSQPSSEEATTGEAAPVSGYRASVWVFCTISGLITLLPDGTIHGINHSFALTLFGYGKTELLGKNITFLIPGFYSYMDLAYNSSLQLPDLASCLDVGNESGCGERTLDPWQGQDPAEGGQDPRINVVLAGGHVVPRDEIRKLMESQDIFTGTQTELIAGGQLLSCLSPQPAPGVDNVPEGSLPVHGEQALPKDQQITALGREEPVAIESPGQDLLGESRSEPVDVKPFASCEDSEAPVPAEDGGSDAGMCGLCQKAQLERMGVSGPSGSDLWAGAAVAKPQAKGQLAGGSLLMHCPCYGSEWGLWWRSQDLAPSPSGMAGLSFGTPTLDEPWLGVENDREELQTCLIKEQLSQLSLAGALDVPHAELVPTECQAVTAPVSSCDLGGRDLCGGCTGSSSACYALATDLPGGLEAVEAQEVDVNSFSWNLKELFFSDQTDQTSSNCSCATSELRETPSSLAVGSDPDVGSLQEQGSCVLDDRELLLLTGTCVDLGQGRRFRESCVGHDPTEPLEVCLVSSEHYAASDRESPGHVPSTLDAGPEDTCPSAEEPRLNVQVTSTPVIVMRGAAGLQREIQEGAYSGSCHHRDGLRLSIQFEVRRVELQGPTPLFCCWLVKDLLHSQRDSAARTRLFLASLPGSTHSTAAELTGPSLVEVLRARPWFEEPPKAVELEGLAACEGEYSQKYSTMSPLGSGAFGFVWTAVDKEKNKEVVVKFIKKEKVLEDCWIEDPKLGKVTLEIAILSRVEHANIIKVLDIFENQGFFQLVMEKHGSGLDLFAFIDRHPRLDEPLASYIFRQLVSAVGYLRLKDIIHRDIKDENIVIAEDFTIKLIDFGSAAYLERGKLFYTFCGTIEYCAPEVLMGNPYRGPELEMWSLGVTLYTLVFEENPFCELEETVEAAIHPPYLVSKELMSLVSGLLQPVPERRTTLEKLVTDPWVTQPVNLADYTWEEVCRVNKPESGVLSAASLEMGNRSLSDVAQAQELCGGPVPGEAPNGQGCLHPGDPRLLTS
Turning to B4, the Km (mM), untreated amounted to 1.3 mM.
